# B1: ERFE 18-mer peptide 121-138 (peptide, UniProt Q4G0M1 121-138, looked up)
# peptide: GPPGPIIPPEALLKEFQL
# notes: human erythroferrone (ERFE), residues 121-138; source: synthetic peptide (GenScript, ≥70% purity)
# B2: ERFE 18-mer peptide 97-114 (peptide, UniProt Q4G0M1 97-114, looked up)
# peptide: KRSRGKAKKLKFGLPGPP
# notes: also called cationic 18-mer peptide; source: synthetic peptide (GenScript, ≥70% purity)
# B3: ERFE 18-mer peptide 73-90 (peptide, UniProt Q4G0M1 73-90, looked up)
# peptide: AHSVDPRDAWMLFVRQSD
# notes: human erythroferrone (ERFE), residues 73-90; source: synthetic peptide (GenScript, ≥70% purity)
# B4: ERFE N terminus ΔCollagen, 43-148 del109-125 (bacterial) (domain or fragment, human, UniProt Q4G0M1 43-148, looked up)
# chain: EPPPGNELPRGPGESRAGPAARPPEPTAERAHSVDPRDAWMLFVRQSDKGVNGKKRSRGKAKKLKFIIPPEALLKEFQLLLKGAVRQRE
# notes: also called bacterial ΔCollagen N terminus; source: E. coli Rosetta2(DE3)pLysS, purified (Ni-NTA, TEV cleavage, reverse IMAC); not shown: His6, N-terminal, cleaved; MBP, N-terminal, cleaved
# B5: ERFE 18-mer peptide 133-150 (peptide, UniProt Q4G0M1 133-150, looked up)
# peptide: LKEFQLLLKGAVRQRERA
# notes: human erythroferrone (ERFE), residues 133-150; source: synthetic peptide (GenScript, ≥70% purity)
# B6: BMP2/6 heterodimer (ligand)
# chain 1: QAKHKQRKRLKSSCKRHPLYVDFSDVGWNDWIVAPPGYHAFYCHGECPFPLADHLNSTNHAIVQTLVNSVNSKIPKACCVPTELSAISMLYLDENEKVVLKNYQDMVVEGCGCR
# chain 2: SASSRRRQQSRNRSTQSQDVARVSSASDYNSSELKTACRKHELYVSFQDLGWQDWIIAPKGYAANYCDGECSFPLNAHMNATNHAIVQTLVHLMNPEYVPKPCCAPTKLNAISVLYFDDNSNVILKKYRNMVVRACGCH
# notes: bone morphogenetic protein 2 chain of the BMP2/6 heterodimer; bone morphogenetic protein 6 chain of the BMP2/6 heterodimer; also called heterodimer of BMP2/6; source: bought: RND Systems #7145-BP-010/CF; copies: 1 + 1
# B7: BMP2 homodimer (ligand, UniProt P12643 283-396, looked up)
# chain: B6 chain 1
# notes: bone morphogenetic protein 2; source: bought: RND Systems #355-BM-010/CF
# B8: BMP6 homodimer (ligand, UniProt P22004 375-513, looked up)
# chain: B6 chain 2
# notes: bone morphogenetic protein 6; source: bought: RND Systems 507-BP-020/CF
# Tests used:
# [1] = target: B8; test: SPR; scan of overlapping synthetic 18-mer peptides of the ERFE N terminus over BMP2/6, BMP2 or BMP6; 180 s injection, then buffer wash; settings: both partners purified
# [2] = target: B7; test: as above; settings: both partners purified
# [3] = target: B6; test: as above; settings: both partners purified
# [4] = target: B8; test: SPR; Biacore T200, CM5 chip; BMP2, BMP6 or BMP2/6 immobilised by amine coupling (50 μg/ml); purified bacterial untagged ERFE N-terminal variants or synthetic 53-mer segments as analyte; HBS-EP pH 7.4, 50 μl/min; KD = koff/kon at five concentrations; settings: both partners purified
# [5] = target: B7; test: as above; settings: both partners purified
# [6] = target: B6; test: as above; settings: both partners purified
# [7] = target: B8; test: as above; settings: both partners purified; remark: listed apart in the source
# [8] = target: B7; test: as above; settings: both partners purified; remark: listed apart in the source
# [9] = target: B6; test: as above; settings: both partners purified; remark: listed apart in the source
# [10] = target: T1, Full-length ERFE (erythroferrone), 43-354, FLAG-tagged (human, UniProt Q4G0M1 43-354); test: SPR; Biacore T200, CM5 chip; BMP2, BMP6 or BMP2/6 immobilised by amine coupling (50 μg/ml); FLAG-ERFE variants made in HEK293T as analyte; HBS-EP (0.15 M NaCl, 3 mM EDTA, 0.005% P20, 0.01 M Hepes pH 7.4), 50 μl/min; KD = koff/kon at five concentrations; the paper calls the constants avidities where binding is presumed multivalent; settings: one partner purified
# T1 construct: human erythroferrone (ERFE), mature molecule, residues 43-354; pcDNA3.1(+) backbone; Predominantly a hexamer at low concentration on native PAGE, a smear of 117-460 kDa at high concentration; also called Full length, 43-354; WT, 43-354; source: HEK293T, transiently transfected, in supernatant; not shown: FLAG, N-terminal, kept
# [11] = target: T1, Full-length ERFE (erythroferrone), …; test: as above; settings: one partner purified; remark: listed apart in the source
binding result [1],binding result [2],binding result [3],Kd [10],koff [11],Binder,other results
binds,binds,binds,,,B1,
binds,binds,binds,,,B2,
binds,binds,binds,,,B3,
,,,,,B4,koff [4]: 0.0085 s⁻¹; log kd [4]: -2.17; koff [5]: 0.0056 s⁻¹; log kd [5]: -2.29; koff [6]: 0.0052 s⁻¹; log kd [6]: -2.29; Kd [7]: 0.756 nM; pKd (-log Kd) [7]: 9.2; Kd [8]: 3.13 nM; pKd (-log Kd) [8]: 8.7; Kd [9]: 50.1 nM; pKd (-log Kd) [9]: 7.3
binds,binds,binds,,,B5,
,,,0.277 nM,0.00022 s⁻¹,B6,
,,,0.445 nM,9e-05 s⁻¹,B7,
,,,0.817 nM,0.00022 s⁻¹,B8,

# — paper PMC10692919, “Characterization of erythroferrone structural domains relevant to its iron-regulatory function” (The Journal of Biological Chemistry, 2023)
